Laboratory results as given in the nanobody polyreactivity screen of Harvey et al. (2022).

Experiment: yeast display, Sf9 membrane polyspecificity reagent, FACS + sequencing; frameworks hold sequencing errors
Method in brief: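 A synthetic nanobody library was expressed on Saccharomyces cerevisiae BJ5465 by galactose induction for 36–48 hours. The library was stained for 1 hour at 4 °C with 10% biotinylated, detergent-solubilized Sf9 membrane reagent and enriched with streptavidin microbeads before FACS. Low and high (top ~1%) gates were set on anti-HA fluorescence for expression and streptavidin fluorescence for reagent binding, and each polyreactivity label reflects the gate of origin.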

Row | Sequence | polyreactivity (PSR sort gate)
1 | QVQLVESGGGLVQAGGSLRLSCAASGSTFWLYVMGWYRQAPGKERELVAAISSSGGRTYYADSVKGRFTISRDNAKNTVYLQMNSLKPEDTAVYYCNKYGTALWRYYYWGQGTQVTVSS | high polyreactivity
2 | QVQLVESGGGLVQAGGSLRLSCAASGSTFWNYAMGWYRQAPGKERELVAAISQRGGSTYYADSVKGRFTISRDNAKNTVYLQMNSLKPEDTAVYYCNIDYAGELDYWGQGTQVTVSS | high polyreactivity
3 | QVQLVESGGGLVQAGGSLRLSCAASGSTFWPNAMGWYRQAPGKERELVAAITGGGGTNYADSVKGRFTISRDNAKNTVYLQMNSLKPEDTAVYYCAAKKVNSRSHVKYYYWGQGTQVTVSS | high polyreactivity
4 | QVQLVESGGGLVQAGGSLRLSCAASGSTFWPYAMGWYRQAPGKERELVAAITRSGGSTYYADSVKGRFTISRDNAKNTVYLQMNSLKPEDTAVYYCAKYTSSRFEYDYWGQGTQVTVSS | low polyreactivity
5 | QVQLVESGGGLVQAGGSLRLSCAASGSTFWSYAMGWYRQAPGKERELVADIRWSGDGTYYADSVKGRFTISRDNAKITVYLQMNSLKPEDTAVYYCAADYFPVNSYGYWGQGTQVTVSS | low polyreactivity
6 | QVQLVESGGGLVQAGGSLRLSCAASGSTFWSYTMGWYRQAPGKERELVAAIRFSGGSTYYADSVKGRFTISRDNAKNTVYLQMNSLKPEDTAVYYCAAGYYRRPYEYWGQGTQVTVSS | low polyreactivity
7 | QVQLVESGGGLVQAGGSLRLSCAASGSTFWTNAMGWFRHAPGKVRELVATISKTTGRTNYADSEKGRFTISRDNAKNTVYLQMNSLKPEDTAVYYCAAEPYSWDTWVDYDYWGIGTQVTVSS | low polyreactivity
8 | QVQLVESGGGLVQAGGSLRLSCAASGSTFWTNDMGWYRQAPGKERELVAAISQSAGDTYYADSVKGRFTISRDNAKNTVYLQMNSLKPEDTAVYYCAADLVFYPFTWDGYYYWGQGTQVTVSS | low polyreactivity
9 | QVQLVESGGGLVQAGGSLRLSCAASGSTFWVNAMGWYRQAPGKVRELVAAIRRGGSTKYADSVKGRFTISRDNAKNTFYLQINSLKPEDTAVSYCAADAPGHEYYYWGQGTQVTVSS | high polyreactivity
10 | QVQLVESGGGLVQAGGSLRLSCAASGSTFWVYAMGWYRQAPGKERELVATISRGGSTNYADSVKGRFTISRDNAKNTVYLQMNSLKPEDTAVYYCAAPRFYGYGYEYCGQGTQVTVSS | low polyreactivity
11 | QVQLVESGGGLVQAGGSLRLSCAASGSTFWWNTMGWYRQAPWKERELVADIRTSGGGTYYADSVKGRFTISRDNAKNTVYLQMNSLKPEDTAVYYCNADPKWEMGSWGQGTQVTVSS | low polyreactivity
12 | QVQLVESGGGLVQAGGSLRLSCAASGSTFWWNTRGWYRQAPGKERELVADIRTSGGGTYYADSVKGRFTISLDNAKNTFYLQMNSLKPEDTAVYYCNADPKWEMGSWGQGTQVTVSS | low polyreactivity
13 | QVQLVESGGGLVQAGGSLRLSCAASGSTFWYYAMGWYRQAPGKESELVAGITQSGGSTYYADSVKGRFTISRDNAKNTVYLQMNSLKPEDTAVYYCAKDGRVSGDFDYWGQGTQVTVSS | low polyreactivity
14 | QVQLVESGGGLVQAGGSLRLSCAASGSTFWYYAMGWYRQEPGKERELVASITYSGGSTYYADSVKGRFTISRDNAKNTVYLQMNSLKPEDTAVYYCAAQSPAYYTKSYWGQGTQVTVSS | low polyreactivity
15 | QVQLVESGGGLVQAGGSLRLSCAASGSTFWYYGMGWYRQAPGKERELVAAITRGGSTYYADSVKGRFTISRDNAKNTVYLQMISLNPEDTAVYYCAAGISVRWSPSYYYWGQGTQVTVSS | high polyreactivity
16 | QVQLVESGGGLVQAGGSLRLSCAASGSTFWYYVMGWYRQAPGKERELVAAIDWTGDSTYYADSVKGRFTISRDNAKNTVYLQMNSLKPVDTAVYYCAAQKYYPYSYYLNNDYWGLGTQVTVSS | low polyreactivity
17 | QVQLVESGGGLVQAGGSLRLSCAASGSTFYANAMGWYRQAPGKERELVAAISSRGGSTSYADSVKGRFTISRDNAKNTVYLQMNSLKPEDTAVYYCNKVTRYYYRGFDYWGQGTQVTVSS | high polyreactivity
18 | QVQLVESGGGLVQAGGSLRLSCAASGSTFYANAMGWYRQAPGKERELVAAITRSGAGTYYADSVKGRFTISRDNAKNTVYLQMNSLKPEDTAVYYCAKRTKTPTGYVWGGYDYWGQGTQVTVSS | high polyreactivity
19 | QVQLVESGGGLVQAGGSLRLSCAASGSTFYANTMGWYRTAPGKERELVAAITYGGGNTYYADSVKGRFTISRDNAKNTVYLQMNSLKPEDTAVYYCAARDYVSYYTRFDYWGQGTQVTVSS | high polyreactivity
20 | QVQLVESGGGLVQAGGSLRLSCAASGSTFYAYAMGWYRQAPGKERELVAAIDSGGSTYYADSVKGRFTISRDNAKNTFYLEMNSLKPEDTAVYYCAVRHRYTRAYWGRDYWGQGTQVTVSS | low polyreactivity
21 | QVQLVESGGGLVQAGGSLRLSCAASGSTFYAYAMGWYRQAPGKERELVAAINSVGSTYYADSVKGRFTISRDNAKNTVYLQMNSLKPEDTAVYYCARGVDYPTSQPPYFRHDYWGQGTQVTVSS | low polyreactivity
22 | QVQLVESGGGLVQAGGSLRLSCAASGSTFYAYTKGWSRQAPGKERELVADISSGGGTYYADSVKGRFTISRDNAKNTVYLQMNSLKPEDTAVYYCNADWRVGRQLSKAKIPYDYWGQGTQVTVSS | low polyreactivity

Row | Sequence | polyreactivity (PSR sort gate)
23 | QVQLVESGGGLVQAGGSLRLSCAASGSTFYAYVMGWYRQAPGKERELVAAITSAGSTYYADSVKGRFTISRDNAKNTVYLQMNSLKPEDTAVYYCAAYYIVHSRQTQGFERYDYWGQGTQVTVSS | low polyreactivity
24 | QVQLVESGGGLVQAGGSLRLSCAASGSTFYAYVMGWYRQAPGKERELVAGISWSGGSTYYADSVKGRFTISRDNAKNTVYLQMNSLKPEDTAVYFFAADYYNTYGYDYWGQGTQVTVSS | low polyreactivity
25 | QVQLVESGGGLVQAGGSLRLSCAASGSTFYDNAMGWYRQAPGKERELVAAIDGGDTYYADSVKGRFTISRDNAKNTVYLQMISLKPEDTAVYYCAAESLPEISVGLGYWGQGTQVTVSS | low polyreactivity
26 | QVQLVESGGGLVQAGGSLRLSCAASGSTFYDNAMGWYRQAPGKERELVARIRWSGVRTYYADSVKGRFTISRDNAKNTVYLQMISLKPEDTAVYYCAAGRPRPHWWSLDYYYWGQGTQVTVSS | low polyreactivity
27 | QVQLVESGGGLVQAGGSLRLSCAASGSTFYFNAMGWYIQAPGKERELVADINYSGTSTYYADSVKGRFTISRDNAKNTVYLQMNSLKPEDTAVYYCAKSLPSSNTSTSYDYWGQGTQVTVSS | low polyreactivity
28 | QVQLVESGGGLVQAGGSLRLSCAASGSTFYFNAMGWYRQAPGKERELVATISDNDGSTNYADSVKGRFTISRDNAKNTVYLLMISLKPEDTGVYYCNADWYYYYEEDDYWGQGTQVTVSS | low polyreactivity
29 | QVQLVESGGGLVQAGGSLRLSCAASGSTFYFYAMGWYRQAPGKERELVAAISQSGGTTYYADSVKGRFTISRDNAKNTVFLQMNSLKPEDTAVYYCNADTDTWYTEYDYWGQGTQVTVSS | low polyreactivity
30 | QVQLVESGGGLVQAGGSLRLSCAASGSTFYFYAMGWYRQAPGKERELVAAISSSGGSTYYADSVKGRFTISRDNAKNTVYLQMNSLKPEDTAVYYCAADDAIYDSLDYWGQGTQVTVSS | low polyreactivity
31 | QVQLVESGGGLVQAGGSLRLSCAASGSTFYFYTMVWYRQAPGKEREFVAAISRRGGSTYYADSVKGRFTISRDNAKNTVYLQMNSLKPEDTAVYYCAAYTSTSDNGDSWGQGTQVTVSS | high polyreactivity
32 | QVQLVESGGGLVQAGGSLRLSCAASGSTFYGNAMGRYRQAPGKEWELVAAISWSGGSTYYADSVKGRFTISRDNAKNTVYLQMNSLKPEDTAVYYCNADGSDRVWYDGYDYWGQGTQVTVSS | low polyreactivity
33 | QVQLVESGGGLVQAGGSLRLSCAASGSTFYGNAMGWYRQAPGKERELVAAISWSGGSTYYADSVKGRFTISRDNAKNTVYLQMNSLKPEDTAVYYCNKDVLLYYVYGHDYWGQGTQVTVSS | low polyreactivity
34 | QVQLVESGGGLVQAGGSLRLSCAASGSTFYGYAMGWYRQAPGKERELVAAITRSGGSTYYADSVKGRFTISRDNAKNTVYLQMNSLKPEDTEVYYCNKYGYKGGVGYDYWGQGSQVTVSS | high polyreactivity
35 | QVQLVESGGGLVQAGGSLRLSCAASGSTFYGYAMGWYRQAPGKERELVAAITVRGGSTYYADSVKGRFTISRDNAKNTVYLQMNSLKPEDTAVYYCAKGRLRRTYYRNKFSFDYWGQGTQVTVSS | high polyreactivity
36 | QVQLVESGGGLVQAGGSLRLSCAASGSTFYGYTMGWYRQAPGKERELVAAISSSGSSTYYADSVKGRFTISRDNAKNTVYLQMNSLKPVDTAVYYCAAATRVPGHGSTSYYYWGQGTQVTVSS | high polyreactivity
37 | QVQLVESGGGLVQAGGSLRLSCAASGSTFYGYVMGWYRQAPGKERDFVAGITRGGSTNYADSVKGRFTISRDNAKNTVYLQMNSLKPEDTAVYYCATRYFSRYYYWGQGTQVTVSS | high polyreactivity
38 | QVQLVESGGGLVQAGGSLRLSCAASGSTFYHYAMGWYRQAPGKERELVAAISSSGGRTYYADSVKGRFTISRDNAKNTVYLQMNSLKPEDTAVYYCAARAKTSGSIEDYWGQGTQVTVSS | high polyreactivity
39 | QVQLVESGGGLVQAGGSLRLSCAASGSTFYINALGWYRQAPGKESELVAAITWNSDSTYYADSVKVRFTISRDNSKNTVYLQMNSLKPEDTAVYYCNHDRIIWGRLYEEGDYWGQGTQVTVSS | low polyreactivity
40 | QVQLVESGGGLVQAGGSLRLSCAASGSTFYIYAMGWSRQAPGKEREFVAAIDFSGSSTYADSVKGRFTISLDNAKNTVYLQMNSLKPEDTAVYYCAAYQIYQYYGPYDYWGQGTQVTVSS | low polyreactivity
41 | QVQLVESGGGLVQAGGSLRLSCAASGSTFYIYAMGWYRQAPGKEREFVAAIDLSGSSTYADSVKGRFTISRDNAKNTVYLQMKSLKPEDTAVYYCAAYQIYQYDGPYDYWGQGTQVTVSS | low polyreactivity
42 | QVQLVESGGGLVQAGGSLRLSCAASGSTFYIYAMGWYRQAPGKERELVARITRGGTTYADSVKGRFTISRDNAKNTVYLQMNSLKLEDTAVYYCNAASKTTRYYQAFYSGGGYWGQGTQVTVSS | high polyreactivity
43 | QVQLVESGGGLVQAGGSLRLSCAASGSTFYIYAMGWYRQATGKERELVARITRGGTTYADSEKGRFTISRDNAKNTVYLQMNSLKPEDTAVYYCNAASKTTRYYQAFYSGGGYWGQGTQVTVSS | high polyreactivity
